Assay results: patent US8663616B2, “Enzymatic peracid generation for use in oral care products” (E I du Pont de Nemours and Company, priority 2010, dated 2014)

Tests used:
[1] = Peracetic acid generated after each round of two-step whitening, ABTS (Example 17); format: biochemical, bovine; conditions: for PAA (ppm) generated after each round of whitening, Rd2: round 2; for PAA (ppm) generated after each round of whitening, Rd3: round 3; for PAA (ppm) generated after each round of whitening, Rd4: round 4; for PAA (ppm) generated after each round of whitening, Rd5: round 5; for PAA (ppm) generated after each round of whitening, Rd1: step 1 enzyme or buffer, step 2 triacetin/H2O2, round 1
Experimental: The samples were diluted 1:100 with 100 mM phosphate buffer and added to ABTS detection reagent as noted in Example 8. Each sample data point represents 2 repeats of independent enamel blocks.

[2] = Perhydrolase activity of enzyme bound to hydroxyapatite discs, ABTS (Example 7); format: biochemical; conditions: for Avg Absorbance Background subtract: background = no enzyme, no HAP (0.775); for Avg Absorbance at 5 min: discs incubated in 20 μM enzyme, 6 washes, 0.346% triacetin, 3.46 mM H2O2, A405; for PAA conc μM per disc: enzyme bound to hydroxyapatite disc, 5 min, no enzyme control 1.2
Experimental: (§1) The detection of peracetic acid followed the method described in Pinkernell et. al. (Analyst, 1997, 122, 567) using colorimetric detection of 2,2′-azino-bis(3-ethylbenzothiazoline(-6-sulfonate (ABTS) oxidation by peracetic acid. Following the formation of peracetic acid with the addition of triacetin and hydrogen peroxide, 90 μL of solution was added to 10 μL of 0.1 M H3PO4 in a well plate. 50 μL of 1 M acetic acid, 50 μL of 0.5 g/L ABTS and 50 μL of 0.002 g/L of KI was added. The solution was allowed to develop for 5 min. The absorbance of the solution was measured at 405 nm using a microplate reader. The peracetic acid concentration was calculated based on a standard curve developed simultaneously using peracetic acid reagent solution.
The perhydrolase activity of the fusions once bound to HAP discs surfaces was determined with the same ABTS method. Hydroxyapatite discs (HiMed Inc, Old Bethpage, N.Y.; 5 mm dia.×1.8 mm thick) were incubated in 20 μM enzyme solution (50 mM potassium phosphate buffer pH 7.2) for 60 min followed by 6 times of washes (50 mM potassium phosphate buffer pH 7.2). The discs with enzyme adsorbed were transferred to new wells and 200 μL of phosphate buffer (10 mM pH 7.2), 30 μL of 3% triacetin (final concentration of 0.346%) and 30 μL of 30 mM H2O2 (final concentration of 3.46 mM) were added. The solution was allowed to incubate at room temperature for 5 min. 90 μL of solution was pipetted to a new well containing 10 μL of 100 mM H3PO4. 50 μL of acetic acid, 50 μL KI, 50 μL ABTS were added as described above. The solution was developed for 5 min at room temperature and read at A405 nm.

[3] = Perhydrolase activity in solution, ABTS detection of peracetic acid (Example 7); format: biochemical; conditions: 10 μL of 0.625 μg/mL enzyme, triacetin, H2O2, pH 7.2, 5 min
Experimental: as §1
The enzyme activity in solution was measured by making a solution of 0.625 μg/mL of each enzyme in 50 mM phosphate buffer, pH 7.2. 10 μL of enzyme solution was mixed with 90 μL buffer, 30 μL of 3% triacetin in water, 30 μL of 30 mM H2O2. The solution was incubated for 5 min. A 90 μL aliquot was removed for detection via ABTS oxidation as noted above.

[4] = Maximum peracetic acid by targeted and untargeted CE-7 perhydrolase with propylene glycol diacetate; format: biochemical; conditions: substrate propylene glycol diacetate; same reaction conditions as Table 20
Experimental: (§2) These ester substrates were tested for peracetic acid production using a targeted C277S perhydrolase variant, EZ-7 under the same reaction conditions used to generate date for Table 20. Peracetic acid production using propylene glycol diacetate or sucrose octaacetate with the EZ-7 perhydrolase system is shown in Table 21.

[5] = Retention of perhydrolase on hydroxyapatite (SDS-PAGE band strength); format: binding; conditions: for Unbound (relative band strength): 10 μM enzyme, 0.5% hydroxyapatite, pH 7.2; for Unbound (relative band strength) / HAP Particles (relative band strength) / Wash1 (relative band strength) / Wash2 (relative band strength): relative to enzyme input = 1; for HAP Particles (relative band strength): enzyme retained on particles after washes
Procedure, shortened: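 Enzyme at 10 μM final was incubated 30 min with 0.5% hydroxyapatite nanoparticles in 10 mM phosphate pH 7.2, then centrifuged and washed three times. Input, wash supernatants and particles were run on SDS-PAGE with Coomassie-type staining; band strength scored relative to input (=1).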

[6] = T. maritima C277S/C277T constructs, peracetic acid when bound to bovine enamel (Example 11); format: biochemical; conditions: bovine enamel exposed to 10 μM enzyme, 4 washes; 100 mM triacetin, 100 mM H2O2, 30 min, 37° C.; no enzyme 570
Experimental: as §1
The perhydrolase enzymes were also assessed for binding to bovine enamel substrates. Enamel substrates were prepared as described in Example 2 and 3. Each enamel block was hydrated in water for overnight at room temperature (˜22° C.). The enamel blocks were then equilibrated with 10 mM potassium phosphate buffer, pH7.2, for 10 min. The enamel substrates were rinsed 3 times the buffer. The enamel wells were filled with 500 μL of 10 μM enzyme solutions which was prepared by diluting in 10 mM phosphate buffer. The samples were incubated for 30 min with slow shaking at 37° C. The non-binding enzyme was removed by washing 4 times with phosphate buffer. Then, each enamel block was embedded inside a putty filled 24-well plate, with only the enamel top surface exposed. The perhydrolase activity from enamel bound enzyme was measured as described in Example 8. 100 μL reaction mixtures (100 mM phosphate buffer, pH7.2 and 100 mM H2O2 and 100 mM triacetin) was added on top of the enamel and incubated for 30 min at 37° C. A 90 μL aliquot was removed for detection via ABTS oxidation as noted in Example 8. Each sample data point represents an average of 3 independent enamel blocks.

[7] = T. maritima C277S/C277T constructs, peracetic acid in solution (Example 11); format: biochemical; conditions: 0.5 μM enzyme, 100 mM triacetin, 100 mM H2O2, pH 7.2, 10 min, 37° C.; no enzyme 114
Experimental: as §1
Perhydrolase enzymes listed in Table 5 were assessed for enzyme activity in solution as described in Example 7. The enzyme activity in solution was measured by making a 500 μl solution of 0.5 μM of each enzyme in 100 mM triacetin, 100 mM H2O2 and 10 mM phosphate buffer, pH 7.2. The solution was incubated for 10 min, at 37° C. After the reaction was stopped by mixing an aliquot with H3PO4, a 10 μL aliquot was removed for proper dilution, and then detected via ABTS oxidation as described in Example 7.

[8] = Maximum peracetic acid by targeted and untargeted CE-7 perhydrolase with sucrose octaacetate; format: biochemical; conditions: substrate sucrose octaacetate; same reaction conditions as Table 20
Experimental: as §2

Maximum Peracetic Acid (ppm), Propylene glycol diacetate [4] [ppm]	Unbound (relative band strength) [5]	binding to / retention on hydroxyapatite (in words) ([5]; after washes)	HAP Particles (relative band strength) [5]	Wash1 (relative band strength) [5]	Wash2 (relative band strength) [5]	Maximum Peracetic Acid (ppm), Sucrose octaacetate [8] [ppm]	Molecule	PAA (ppm) generated after each round of whitening, Rd2 [1] [ppm]	PAA (ppm) generated after each round of whitening, Rd3 [1] [ppm]	PAA (ppm) generated after each round of whitening, Rd4 [1] [ppm]	PAA (ppm) generated after each round of whitening, Rd5 [1] [ppm]	PAA (ppm) generated after each round of whitening, Rd1 [1] [ppm]	Avg Absorbance Background subtract [2]	Avg Absorbance at 5 min [2]	PAA conc μM per disc [2] [μM per disc]	Avg Absorbance 405 nm Background subtracted [3]	Peracetic acid (ppm) On Enamel [6] [ppm]	Peracetic acid (ppm) In Solution [7] [ppm]	activity when bound to hydroxyapatite (in words) ([2]; with addition of triacetin and hydrogen peroxide)
2165	0.98	does not bind to hydroxyapatite	0.01	0.01	0.0	2768	EZ-1: Thermotoga maritima acetyl xylan esterase variant C277S, untargeted perhydrolase, SEQ ID NO: 424 (protein, listed as Thermotoga maritima) MAFFDLPLEELKKYRPERYEEKDFDEFWEETLAESEKFPLDPVFERMESHLKTVEAYDVTFSGYRGQRIKGWLLVPKLEEEKLPCVVQYIGYNGGRGFPHDWLFWPSMGYICFVMDTRGQGSGWLKGDTPDYPEGPVDPQYPGFMTRGILDPRTYYYRRVFTDAVRAVEAAASFPQVDQERIVIAGGSQGGGIALAVSALSKKAKALLCDVPFLCHFRRAVQLVDTHPYAEITNFLKTHRDKEEIVFRTLSYFDGVNFAARAKIPALFSVGLMDNISPPSTVFAAYNYYAGPKEIRIYPYNNHEGGGSFQAVEQVKFLKKLFEKG	41.0	30.2	39.3	47.1	33.2	0.126	0.901	3.5	1.830	628	4270	–
2109	0.5	–	0.5	0.01	0.0	2070	EZ-7: C277S-link1-DenP308-H6, SEQ ID NO: 429 (protein) MAFFDLPLEELKKYRPERYEEKDFDEFWEETLAESEKFPLDPVFERMESHLKTVEAYDVTFSGYRGQRIKGWLLVPKLEEEKLPCVVQYIGYNGGRGFPHDWLFWPSMGYICFVMDTRGQGSGWLKGDTPDYPEGPVDPQYPGFMTRGILDPRTYYYRRVFTDAVRAVEAAASFPQVDQERIVIAGGSQGGGIALAVSALSKKAKALLCDVPFLCHFRRAVQLVDTHPYAEITNFLKTHRDKEEIVFRTLSYFDGVNFAARAKIPALFSVGLMDNISPPSTVFAAYNYYAGPKEIRIYPYNNHEGGGSFQAVEQVKFLKKLFEKGGPGSGGAGSPGSAGGPGSTKPPRTPTANTSRPHHNFGSGGGGSPHHHHHH	496.7	716.5	998.5	1224.5	383.5	1.450	1.45	23.5	1.619	1040	5519	active enzymes when bound to hydroxyapatite
